# Measurements published in article PMC4894655, “Three proliferating cell nuclear antigen homologues from Metallosphaera sedula form a head-to-tail heterotrimer” (Scientific Reports, 2016).
# T1: SsoPCNA2 (Sulfolobus solfataricus)
# T1 chain: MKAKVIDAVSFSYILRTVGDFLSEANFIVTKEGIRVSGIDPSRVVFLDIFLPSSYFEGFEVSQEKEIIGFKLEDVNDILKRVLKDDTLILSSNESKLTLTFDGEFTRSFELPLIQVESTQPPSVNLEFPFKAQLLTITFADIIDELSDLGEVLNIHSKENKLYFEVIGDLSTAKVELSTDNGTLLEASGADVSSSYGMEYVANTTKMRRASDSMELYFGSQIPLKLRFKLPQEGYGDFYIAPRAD
# T2: MsePCNA2 (Metallosphaera sedula, UniProt A4YHP5 1-244)
# T2 chain: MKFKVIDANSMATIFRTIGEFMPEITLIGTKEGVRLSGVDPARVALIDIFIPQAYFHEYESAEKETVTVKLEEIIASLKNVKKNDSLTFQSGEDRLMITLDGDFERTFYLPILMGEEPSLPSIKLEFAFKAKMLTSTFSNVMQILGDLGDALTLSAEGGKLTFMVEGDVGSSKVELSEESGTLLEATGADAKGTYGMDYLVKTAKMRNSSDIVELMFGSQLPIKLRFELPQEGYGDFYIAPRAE
# Columns and labels:
# [1] = molecular target: T1, SsoPCNA2; assay: SPR; 5 nM SsoPCNA1
# [2] = molecular target: T2, MsePCNA2; assay: SPR; 5 nM SsoPCNA1
# [3] = molecular target: T1, SsoPCNA2; assay: SPR; 5 nM SsoPCNA1
# [4] = molecular target: T1, SsoPCNA2; assay: SPR; 10 nM SsoPCNA1
# [5] = molecular target: T2, MsePCNA2; assay: SPR; 10 nM SsoPCNA1
# [6] = molecular target: T1, SsoPCNA2; assay: SPR; 20 nM SsoPCNA1
# [7] = molecular target: T2, MsePCNA2; assay: SPR; 20 nM SsoPCNA1
# [8] = molecular target: T1, SsoPCNA2; assay: SPR; 40 nM SsoPCNA1
# [9] = molecular target: T1, SsoPCNA2; assay: SPR; 75 nM SsoPCNA1
# [10] = molecular target: T2, MsePCNA2; assay: SPR; 75 nM SsoPCNA1
# [11] = molecular target: T2, MsePCNA2; assay: SPR; 10 nM SsoPCNA1
# [12] = molecular target: T1, SsoPCNA2; assay: SPR; 20 nM SsoPCNA1
# [13] = molecular target: T2, MsePCNA2; assay: SPR; 20 nM SsoPCNA1
# [14] = molecular target: T2, MsePCNA2; assay: SPR; 40 nM SsoPCNA1
# [15] = molecular target: T2, MsePCNA2; assay: SPR; 75 nM SsoPCNA1
# [16] = molecular target: T1, SsoPCNA2; assay: SPR; 2.5 nM SsoPCNA1
# [17] = molecular target: T2, MsePCNA2; assay: SPR; 2.5 nM SsoPCNA1
# [18] = molecular target: T1, SsoPCNA2; assay: SPR; 2.5 nM SsoPCNA1
# [19] = molecular target: T2, MsePCNA2; assay: SPR; 2.5 nM SsoPCNA1
# [20] = molecular target: T1, SsoPCNA2; assay: SPR; 0.61 nM SsoPCNA1
# [21] = molecular target: T2, MsePCNA2; assay: SPR; 0.61 nM SsoPCNA1
# [22] = molecular target: T1, SsoPCNA2; assay: SPR; 0.61 nM SsoPCNA1
# [23] = molecular target: T2, MsePCNA2; assay: SPR; 0.61 nM SsoPCNA1
# [24] = molecular target: T1, SsoPCNA2; assay: SPR; Biacore; about 350 RU of MsePCNA2 or SsoPCNA2 immobilised on Sensor Chip CM5; MsePCNA1 or SsoPCNA1 injected (2.5, 5, 10, 20, 40 nM), kinetic fit; 10 mM HEPES-HCl pH 7.4, 150 mM NaCl
binder,measurement,setting,value
SsoPCNA1 (natural protein) MFKIVYPNAKDFFSFINSITNVTDSIILNFTEDGIFSRHLTEDKVLMAIMRIPKDVLSEYSIDSPTSVKLDVSSVKKILSKASSKKATIELTETDSGLKIIIRDEKSGAKSTIYIKAEKGQVEQLTEPKVNLAVNFTTDESVLNVIAADVTLVGEEMRISTEEDKIKIEAGEEGKRYVAFLMKDKPLKELSIDTSASSSYSAEMFKDAVKGLRGFSAPTMVSFGENLPMKIDVEAVSGGHMIFWIAPRL,koff,[1],0.000173 s⁻¹
same,koff,[2],0.000505 s⁻¹
same,Kd,[3],0.602 nM
same,koff,[4],0.000182 s⁻¹
same,koff,[5],0.000501 s⁻¹
same,koff,[6],0.000163 s⁻¹
same,koff,[7],0.000472 s⁻¹
same,koff,[8],0.000134 s⁻¹
same,koff,[9],3.07e-05 s⁻¹
same,koff,[10],9.46e-05 s⁻¹
same,Kd,[11],1.57 nM
same,Kd,[12],0.116 nM
same,Kd,[13],2.67 nM
same,Kd,[14],1.63 nM
same,Kd,[15],2.14 nM
same,koff,[16],0.000171 s⁻¹
same,koff,[17],0.000512 s⁻¹
same,Kd,[18],0.473 nM
same,Kd,[19],1.41 nM
same,koff,[20],0.000172 s⁻¹
same,koff,[21],0.000528 s⁻¹
same,Kd,[22],0.383 nM
same,Kd,[23],1.21 nM
same,Kd,[24],0.65 nM
same,koff,[24],0.00015 s⁻¹
same,kon,[24],250000 M⁻¹ s⁻¹
